{"source": "patent US20230220399", "key": {"[1]": {"biological_target": "human serum albumin (HSA) (Homo sapiens) (UniProt P02768)", "details": "ELISA, SB18, 37 C"}, "[2]": {"biological_target": "CD3 delta/epsilon heterodimer (UniProt P04234+P07766)", "sequence (P04234 22-105, stated change not applied, chain 1 of 2)": "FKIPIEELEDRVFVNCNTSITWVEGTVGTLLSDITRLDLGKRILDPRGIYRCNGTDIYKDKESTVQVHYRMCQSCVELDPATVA", "sequence (P07766 23-126, stated change not applied, chain 2 of 2)": "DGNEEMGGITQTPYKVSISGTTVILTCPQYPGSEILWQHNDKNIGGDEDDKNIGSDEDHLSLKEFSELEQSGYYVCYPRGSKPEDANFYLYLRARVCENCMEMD", "details": "ELISA, SB18, 37 C"}, "[3]": {"biological_target": "PD-L1 (B7-H1) (Homo sapiens) (UniProt Q9NZQ7)", "sequence (Q9NZQ7 19-238)": "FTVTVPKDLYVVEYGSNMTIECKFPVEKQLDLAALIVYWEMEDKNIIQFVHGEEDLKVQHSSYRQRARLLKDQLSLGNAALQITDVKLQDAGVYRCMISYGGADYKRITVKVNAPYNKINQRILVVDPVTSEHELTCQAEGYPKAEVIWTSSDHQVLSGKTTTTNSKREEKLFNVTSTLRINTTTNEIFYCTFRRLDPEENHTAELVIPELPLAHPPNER", "details": "ELISA, SB18, 37 C"}, "[4]": {"biological_target": "4-1BB (TNFRSF9) (Homo sapiens) (UniProt Q07011)", "sequence (Q07011 24-186)": "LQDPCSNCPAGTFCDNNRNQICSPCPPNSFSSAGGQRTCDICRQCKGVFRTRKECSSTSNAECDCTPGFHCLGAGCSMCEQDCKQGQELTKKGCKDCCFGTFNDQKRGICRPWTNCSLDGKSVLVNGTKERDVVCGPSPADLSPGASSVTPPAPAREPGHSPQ", "details": "ELISA"}, "KRAS G12D G12D, P01116-2": {"system": "KRAS G12D G12D, P01116-2", "details": "ELISA, SB18, 37 C"}, "[5]": {"details": "Nap-dU at n (6) positions [Nap-dU at 16,20,23,28,29,30,31,34,40,41,42,45,54]"}, "[6]": {"details": "Nap-dU at n (6) positions [Nap-dU at 18,22,26,34,36,39,42,43,46,52,57]"}, "[7]": {"details": "Nap-dU at n (6) positions [18,20,22,32,33,34,35,36,44,45,47,53,57 (Nap-dU)]"}, "[8]": {"details": "Nap-dU at n (6) positions [18,20,26,27,29,31,35,36,42,45,53,54,55,56]"}, "[9]": {"details": "Nap-dU at n (6) positions [Nap-dU at 3,6,11,12,13,14,17,23,24,25,28,37]"}, "[10]": {"details": "Nap-dU at n (6) positions [4,8,14,21-23,25]"}, "[11]": {"details": "Nap-dU at n (6) positions [4,8,14,21,22,23,25]"}, "[12]": {"details": "Nap-dU at n (6) positions [Nap-dU at 5,6,7,8,11,17,18,19,22]"}, "[13]": {"details": "Nap-dU at n (6) positions [Nap-dU at 4,17,24,26,29,32,33,36,45]"}, "[14]": {"details": "Nap-dU at n (6) positions [13,15-16,18,23-24,29,31,34,41,44]"}, "[15]": {"details": "Nap-dU at n (6) positions [9,14,18,24,31,32,33,35,44]"}, "[16]": {"details": "Nap-dU at n (6) positions [Nap-dU at 21,28,30,33,36,37,40,49]"}, "[17]": {"details": "Nap-dU at n (6) positions [2,4,9,17,19,23,24,25,26,33,35]"}, "[18]": {"details": "Nap-dU at n (6) positions [1,7,9,15,17,19,24,32,34,38,39,40,41,48,50]"}, "[19]": {"details": "Nap-dU at n (6) positions [1,6,7,8,14,16,18,20]"}, "[20]": {"details": "Nap-dU at n (6) positions [1,6,7,8,14,16,18,20], SB18, 37 C"}, "[21]": {"details": "Nap-dU at n (6) positions [Nap-dU at 1,6,7,8,9,12,18,19,20,23]"}}, "note": "Where two headings read alike, the source gives them in different places."}
{"sequence": "GAGTGACCGTCTGCCTGGATCCTGCCCTTTTAATCCGACTTTAATGGCCACGCTCACCAGCCACACCACCAGCC [AA001]", "values": [{"measurement": "Kd", "setting": "[1]; [5]", "result": 9.62, "unit": "nM"}, {"measurement": "Kd", "setting": "[2]; [5]", "result": 3.17, "unit": "nM"}]}
{"sequence": "GAGTGACCGTCTGCCTGTCAATCACTGACGAAATGTACTACTTGATAGAGCTAACCTCAGCCACACCACCAGCC [AP027]", "values": [{"measurement": "Kd", "setting": "[3]; [6]", "result": 354, "unit": "nM"}, {"measurement": "Kd", "setting": "[1]; [6]", "result": 2.17, "unit": "nM"}]}
{"sequence": "GAGTGACCGTCTGCCTGTCTCCAACCTCGCCTTTACAACTATATCTGACGAACTAACACAGCCACACCACCAGCC [AB001]", "values": [{"measurement": "Kd", "setting": "[1]; Nap-dU at n (6) positions [Nap-dU at 16,18,20,27,32,33,34,40,42,44,46,54]", "result": 8.39, "unit": "nM"}, {"measurement": "Kd", "setting": "[4]; Nap-dU at n (6) positions [Nap-dU at 16,18,20,27,32,33,34,40,42,44,46,54], SB18 buffer (5 mM MgCl2), 37 C", "result": 0.04, "unit": "nM"}]}
{"sequence": "GAGTGACCGTCTGCCTGTGTCTGAGGGACCCTTTTTAAGGGCATTATCAGCATGCCTCACACAGCCACACCACCAGCC [AD002]", "values": [{"measurement": "Kd", "setting": "[1]; [7]", "result": 1.3, "unit": "nM"}, {"measurement": "Kd", "setting": "KRAS G12D G12D, P01116-2; [7]", "result": 0.55, "unit": "nM"}]}
{"sequence": "GAGTGACCGTCTGCCTGTGTGAGAATTATGTACCTTAACGATCATCCGAAGGTTTTGACCACAGCCACACCACCAGCC [AD001]", "values": [{"measurement": "Kd", "setting": "[1]; [8]", "result": 8.4, "unit": "nM"}, {"measurement": "Kd", "setting": "KRAS G12D G12D, P01116-2; [8]", "result": 8.12, "unit": "nM"}]}
{"sequence": "GATCCTGCCCTTTTAATCCGACTTTAATGGCCACGCTCAC [AA003]", "values": [{"measurement": "Kd", "setting": "[1]; [9]", "result": 4.32, "unit": "nM"}, {"measurement": "Kd", "setting": "[2]; [9]", "result": 7.63, "unit": "nM"}]}
{"sequence": "GCATAAGTCCGGATGGCAGCTTTATGC [AD008]", "values": [{"measurement": "Kd", "setting": "[1]; [10]", "result": 66.9, "unit": "nM"}, {"measurement": "Kd", "setting": "KRAS G12D G12D, P01116-2; [10]", "result": 287, "unit": "nM"}]}
{"sequence": "GCATAAGTCCGGATGGCAGCTTTATGCCGACC [AD007]", "values": [{"measurement": "Kd", "setting": "[1]; [11]", "result": 536, "unit": "nM"}, {"measurement": "Kd", "setting": "KRAS G12D G12D, P01116-2; [11]", "result": 152, "unit": "nM"}]}
{"sequence": "GCCCTTTTAATCCGACTTTAAT [AA007]", "values": [{"measurement": "Kd", "setting": "[1]; [12]", "result": 2.03, "unit": "nM"}, {"measurement": "Kd", "setting": "[2]; [12]", "result": 15.1, "unit": "nM"}]}
{"sequence": "GCCTGACAACAACGAGTGCGAACTGTACTACTTGATAGAGACCCTCAGCC [AP001]", "values": [{"measurement": "Kd", "setting": "[3]; [13]", "result": 42.7, "unit": "nM"}, {"measurement": "Kd", "setting": "[1]; [13]", "result": 20.9, "unit": "nM"}]}
{"sequence": "GCCTGCCCCGCCTCTTCTGAAGTTAACATGTGCTCCGAGATGGTACAGCC [AD010]", "values": [{"measurement": "Kd", "setting": "[1]; [14]", "result": 4.49, "unit": "nM"}, {"measurement": "Kd", "setting": "KRAS G12D G12D, P01116-2; [14]", "result": 8.18, "unit": "nM"}]}
{"sequence": "GCCTGGACTAGCATAAGTCCGGATGGCAGCTTTATGCCGACCATCAGCC [AD004]", "values": [{"measurement": "Kd", "setting": "[1]; [15]", "result": 190, "unit": "nM"}, {"measurement": "Kd", "setting": "KRAS G12D G12D, P01116-2; [15]", "result": 16.6, "unit": "nM"}]}
{"sequence": "GCCTGTCTCCAACCTCGCCTTTACAACTATATCTGACGAACTAACACAGCC [AB002]", "values": [{"measurement": "Kd", "setting": "[1]; Nap-dU at n (6) positions [6,8,15,20,21,22,28,30,32,34,42]", "result": 2.92, "unit": "nM"}, {"measurement": "Kd", "setting": "[4]; Nap-dU at n (6) positions [6,8,15,20,21,22,28,30,32,34,42], SB18, 37 C", "result": 0.48, "unit": "nM"}]}
{"sequence": "GTCTGCCTGACAACAACGAGTGCGAACTGTACTACTTGATAGAGACCCTC [AP024]", "values": [{"measurement": "Kd", "setting": "[3]; [16]", "result": 33.3, "unit": "nM"}, {"measurement": "Kd", "setting": "[1]; [16]", "result": 22.3, "unit": "nM"}]}
{"sequence": "GTCTGCCTGACAACAACGAGTGCGAACTGTACTACTTGATAGAGACCCTCAGCCACACCACCAGCC [AP022]", "values": [{"measurement": "Kd", "setting": "[3]; [16]", "result": 66.6, "unit": "nM"}, {"measurement": "Kd", "setting": "[1]; [16]", "result": 16.6, "unit": "nM"}]}
{"sequence": "GTGTGACCTGAAGACGTATAACTTTTACAGAATCTACA [AD050]", "values": [{"measurement": "Kd", "setting": "[1]; [17]", "result": 5.55, "unit": "nM"}, {"measurement": "Kd", "setting": "KRAS G12D G12D, P01116-2; [17]", "result": 455, "unit": "nM"}]}
{"sequence": "TCGAGCTGTACGCGTGTGTGACCTGAAGACGTATAACTTTTACAGAATCTACA [AD053]", "values": [{"measurement": "Kd", "setting": "[1]; [18]", "result": 1.37, "unit": "nM"}, {"measurement": "Kd", "setting": "KRAS G12D G12D, P01116-2; [18]", "result": 1.03, "unit": "nM"}]}
{"sequence": "TCGCCTTTACAACTATATCTGACGA [AB007]", "values": [{"measurement": "Kd", "setting": "[1]; [19]", "result": 186, "unit": "nM"}, {"measurement": "Kd", "setting": "[4]; [20]", "result": 0.49, "unit": "nM"}]}
{"sequence": "TCGCCTTTACAACTATATCTGACGAAC [AB006]", "values": [{"measurement": "Kd", "setting": "[1]; [19]", "result": 278, "unit": "nM"}, {"measurement": "Kd", "setting": "[4]; [20]", "result": 0.44, "unit": "nM"}]}
{"sequence": "TCTCCAACCTCGCCTTTACAACTATATCTGACGAACTAACA [AB003]", "values": [{"measurement": "Kd", "setting": "[1]; Nap-dU at n (6) positions [1,3,10,15,16,17,23,25,27,29,37]", "result": 19.8, "unit": "nM"}, {"measurement": "Kd", "setting": "[4]; Nap-dU at n (6) positions [1,3,10,15,16,17,23,25,27,29,37], SB18, 37 C", "result": 0.87, "unit": "nM"}]}
{"sequence": "TGCCCTTTTAATCCGACTTTAATGGC [AA006]", "values": [{"measurement": "Kd", "setting": "[1]; [21]", "result": 15.5, "unit": "nM"}, {"measurement": "Kd", "setting": "[2]; [21]", "result": 14.3, "unit": "nM"}]}
{"sequence": "TGCCCTTTTAATCCGACTTTAATGGCCACG [AA005]", "values": [{"measurement": "Kd", "setting": "[1]; [21]", "result": 8.27, "unit": "nM"}, {"measurement": "Kd", "setting": "[2]; [21]", "result": 39.4, "unit": "nM"}]}
